The assay concerns the target T1, recombinant human cytokine TNFα (human, UniProt P01375 77-233).
T1 construct: Recombinant human TNFα used for immunisation, panning and ELISA; also called human TNFα; rhTNF-α
Briefly: phage display selection and ELISA on coated TNFα. The method, then:
Phage selection rounds, amplification and recovery: There were performed 4 rounds of phage selection with TNFα 1 μg in PBS in an ELISA plate, sealed and incubating over night at 4° C., the cytokine is eliminated and blocking with 150 μl of PBS-BSA (3%), sealed and incubated 1 hr at 37° C.; discarding and adding 50 μl of phage-antibodies for each well, sealed and incubated with TBS-Tween 20 (0.05%) 150 for each well using the pipette to agitate. The solution is discarded and the phage-antibodies specific for TNFα are harvested after adding 50 μl per well of TBS-Trypsin [10 mg/ml]. The plate is sealed and incubated during 30 minutes, 37° C. The phage-antibodies are recovered and used to infect a culture of E. coli ER2537 (2 ml) electro-compentents (DO₆₀₀=1), during 15 minutes at room temperature. The selected phage-antibodies are amplified using serial dilutions incubating the transformants in SB media with carbencillin and helper phage VCSM13 with kanamycin. The phage-antibodies were recovered from the infected cultures of ER2537 cells by centrifugations using first PEG-8000 4% and NaCl 3, and PBS_BSA 1% (2 ml) filtering the supernatant with a 0.22 μm membrane, using 50 μl para to be selected according to the TNFα binding. […]

T1 sequence (P01375 77-233 limits assumed): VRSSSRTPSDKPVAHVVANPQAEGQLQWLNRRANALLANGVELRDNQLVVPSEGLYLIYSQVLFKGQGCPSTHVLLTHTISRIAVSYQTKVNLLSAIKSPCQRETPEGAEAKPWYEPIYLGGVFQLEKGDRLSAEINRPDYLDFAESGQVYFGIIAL

B1: vNAR clone 65 (anti-TNFα vNAR from Heterodontus francisci) (other)
chain: ASLDQTPRTATRETGESLTVNCVLVDANYGLYNTSWYRNNPGSTDREHITIGGRYVESVNKGAKSFSLQIKDMTVEDSGTYYCKARESDYNRVGIRDYKDYDGAGTVLTVN
notes: Shark IgNAR single variable domain (vNAR), expressed from pCOMb3X in E. coli; also called TNF65
On to B1, for which the binding result is listed as “binds”.

For the origin of these results see patent US20110129473A1 (LABORATORIOS SILANES S A DE C V, published 2011).
